Source: patent US20210355166A1, “[…] METHODS OF USE THEREOF” (priority 2018, published 2021)

Assays:
[1] = biological target: human κ-opioid receptor (hKOPr), human recombinant KOPr expressed in CHO cells (human) (UniProt P41145); assay: competition with [3H]U69593 (2 nM), human recombinant KOPr expressed in CHO cells
[2] = biological target: human δ-opioid receptor (hDOPr), human recombinant DOPr expressed in CHO cells (human) (UniProt P41143); assay: competition with [3H]DADLE (0.5 nM), human recombinant DOPr expressed in CHO cells

For “bilorphin (H-[Dmt]-vVf-NH2; 2,6-dimethyl-L-tyrosine-D-Val-L-Val-D-Phe-NH2) (peptide)”, the Ki [1] was 770 nM and the Ki [2] was 190 nM.
